These results are taken from publication PMC10632424, “Low-noise fluorescent detection of cardiac troponin I in human serum based on surface acoustic wave separation”.

One series addresses T1, C-reactive protein (CRP) (UniProt P02741 19-224).
T1 sequence: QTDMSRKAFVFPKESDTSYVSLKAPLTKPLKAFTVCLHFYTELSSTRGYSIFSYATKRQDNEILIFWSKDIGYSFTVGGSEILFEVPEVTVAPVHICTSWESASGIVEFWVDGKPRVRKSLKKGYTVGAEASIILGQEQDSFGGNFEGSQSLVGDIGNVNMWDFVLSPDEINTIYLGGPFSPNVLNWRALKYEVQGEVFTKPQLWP
Put plainly: fluorescence recovery by displacement of AuNP-ssDNA (bead-immobilized probe); 20 ng/mL; negligible response; PBS pH 7.2, 30 min shaking, temperature not stated; probe folded in 1 mM MgCl2, 1x PBS pH 7.2; serum diluted 10x in PBS. Particulars: protein: commercial; chain copies: 5; label: Texas Red; gold nanoparticle quencher; biotin on streptavidin PS beads; S2 pairs with S1[6-23]; S1 overhangs 5' 5 nt and 3' 17 nt.

In a further series the target is T2, myoglobin (MYO) (UniProt P02144 2-154).
T2 sequence: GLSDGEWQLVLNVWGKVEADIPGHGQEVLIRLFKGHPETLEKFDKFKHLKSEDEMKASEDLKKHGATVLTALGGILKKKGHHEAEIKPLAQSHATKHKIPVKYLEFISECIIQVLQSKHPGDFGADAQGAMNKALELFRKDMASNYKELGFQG
The series is described as above. As to conditions: protein: commercial; label: Texas Red; gold nanoparticle quencher; biotin on streptavidin PS beads; S2 pairs with S1[6-23]; S1 overhangs 5' 5 nt and 3' 17 nt.

Series [1] deals with cardiac troponin I (cTnI) (human, UniProt P19429 2-210). Put plainly: fluorescence recovery by displacement of AuNP-ssDNA (bead-immobilized probe); PBS, cTnI 0.2-60 ng/mL; LOD 44 pg/mL; PBS pH 7.2, 30 min shaking, temperature not stated; probe folded in 1 mM MgCl2, 1x PBS pH 7.2; serum diluted 10x in PBS. As to conditions: protein: commercial; label: Texas Red; gold nanoparticle quencher; biotin on streptavidin PS beads; S2 pairs with S1[6-23]; S1 overhangs 5' 5 nt and 3' 17 nt.
Sequence of cardiac troponin I (cTnI) (P19429 2-210): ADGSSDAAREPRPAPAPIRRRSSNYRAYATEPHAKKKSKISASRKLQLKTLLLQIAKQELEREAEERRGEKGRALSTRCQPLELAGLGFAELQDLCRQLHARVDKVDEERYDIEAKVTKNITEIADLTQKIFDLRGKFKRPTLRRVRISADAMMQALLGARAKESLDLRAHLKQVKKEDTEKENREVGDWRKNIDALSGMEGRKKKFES

B1: cTnI aptamer probe hybridized with AuNP-ssDNA (mixed)
DNA 1: CGTGCAGTACGCCAACCTTTCTCATGCGCTGCCCCTCTTA
DNA 2: GAGAAAGGTTGGCGTACT
modifications: 5'-biotin and 3'-Texas Red on S1; 5' SH-C6 on S2 (gold nanoparticle)
Turning to B1, the binding result in the series with C-reactive protein (CRP) was “no binding”; with myoglobin (MYO) it was “no binding”; in series [1], “binds”.
